Where “and” joins values, the source holds several entries; their conditions need not be identical. Equal entries are not always repeated.
Target: T1, recombinant human Siglec-8 extracellular domain (ECD) (human, UniProt Q9NYZ4 17-363)
T1 construct: extracellular domain; also called Siglec-8 ECD; full Siglec-8 ECD
Experiment: ELISA, coated Siglec-8 ECD
Method: Binding of recombinant human Siglec-8 extracellular domain (ECD) by chimeric 2E2 and chimeric 2C4 IgG1K antibodies was measured by ELISA. […] Three-fold serial dilutions of a chimeric antibody (ch2E2 or ch2C4) or mouse antibody (m2E2 or m2C4) in 0.2% BSA/TBS (starting concentration was 5000 ng/mL) was added to each coated well. The plate was incubated for 2 hours at room temperature and the wells were subsequently washed before addition of goat-anti-human Fc peroxidase conjugate (1:10000 dilution) or anti-mouse Fc peroxidase conjugate (1:30000 dilution) diluted in 0.2% BSA/TBS solution. The plate was incubated for 45 minutes at room temperature, followed by washing and addition of 30 μL K-blue HRP substrate (SkyBio Ltd) to each well. After incubation at room temperature for 15 minutes, the reaction was stopped by adding 10 μL of Red Stop solution (SkyBio Ltd) to each well. The optical density or the experimental samples was read at 650 nm using the ELISA reader PHERAStar FS (BMG Labtech).
The fully humanized antibody heavy and light chains were combined and compared with the chimeric antibody to determine if replacing the 4 Å and canonical framework residues and interface residues was sufficient to successfully humanize 2E2. Expi293 cells were co-transfected with combinations of different humanized light chain vectors in association with different humanized heavy chain vectors. Siglec-8 antigen was used to measure antibody binding by ELISA as described in Example 1.

T1 sequence (Q9NYZ4 17-363): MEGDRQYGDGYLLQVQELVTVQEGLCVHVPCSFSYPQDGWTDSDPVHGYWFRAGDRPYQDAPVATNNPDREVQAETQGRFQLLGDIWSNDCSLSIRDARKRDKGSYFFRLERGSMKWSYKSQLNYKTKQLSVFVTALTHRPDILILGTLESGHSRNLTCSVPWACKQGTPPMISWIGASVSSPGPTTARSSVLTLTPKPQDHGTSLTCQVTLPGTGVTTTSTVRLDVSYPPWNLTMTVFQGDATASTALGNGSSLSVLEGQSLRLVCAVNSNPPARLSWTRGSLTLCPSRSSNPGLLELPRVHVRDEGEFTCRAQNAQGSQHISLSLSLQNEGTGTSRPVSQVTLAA

Binder	EC50
HCKB (antibody, human IgG1, V domains shown, human IgG1/kappa) VH: EVQLVESGGGLVQPGGSLRLSCAVSGFSLTIYGAHWVRQAPGKGLEWVSVIWAGGSTNYNSALMSRFTISKDNSKNTVYLQMNSLRAEDTAVYYCARDGSSPYYYSMEYWGQGTTVTVSS VL: EIILTQSPATLSLSPGERATLSCSATSSVSYMHWFQQKPGQAPRLWIYSTSNLASGVPARFSGSGSGTDYTLTISSLEPEDFAVYYCQQRSSYPFTFGPGTKLDIK	65 pM
HCKFmut (antibody, human IgG1, V domains shown, human IgG1/kappa) VH: EVQLVESGGGLVQPGGSLRLSCAVSGFSLTIYGAHWVRQAPGKGLEWVSVIWAGGSTNYNSALMSRFTISKDNSKNTVYLQMNSLRAEDTAVYYCARDGSSPYYYSMEYWGQGTTVTVSS VL: EIVLTQSPATLSLSPGERATLSCSATSSVSYMHWFQQKPGQAPRLLIYSTSNLASGIPARFSGSGSGTDYTLTISSLEPEDFAVYYCQQRSSYPYTFGPGTKLDIK	78 pM
HCKG (antibody, human IgG1, V domains shown, human IgG1/kappa) VH: EVQLVESGGGLVQPGGSLRLSCAVSGFSLTIYGAHWVRQAPGKGLEWVSVIWAGGSTNYNSALMSRFTISKDNSKNTVYLQMNSLRAEDTAVYYCARDGSSPYYYSMEYWGQGTTVTVSS VL: EIVLTQSPATLSLSPGERATLSCSATSSVSYMHWYQQKPGQAPRLLIYSTSNLASGIPARFSGSGSGTDFTLTISSLEPEDFAVYYCQQRSSYPFTFGPGTKLDIK	273 pM
HCKD (antibody, human IgG1, V domains shown, human IgG1/kappa) VH: EVQLVESGGGLVQPGGSLRLSCAVSGFSLTIYGAHWVRQAPGKGLEWVSVIWAGGSTNYNSALMSRFTISKDNSKNTVYLQMNSLRAEDTAVYYCARDGSSPYYYSMEYWGQGTTVTVSS VL: EIVLTQSPATLSLSPGERATLSCSATSSVSYMHWFQQKPGQAPRLWIYSTSNLASGIPARFSGSGSGTDFTLTISSLEPEDFAVYYCQQRSSYPFTFGPGTKLDIK	49 pM
HCKF (antibody, human IgG1, V domains shown, human IgG1/kappa) VH: EVQLVESGGGLVQPGGSLRLSCAVSGFSLTIYGAHWVRQAPGKGLEWVSVIWAGGSTNYNSALMSRFTISKDNSKNTVYLQMNSLRAEDTAVYYCARDGSSPYYYSMEYWGQGTTVTVSS VL: EIVLTQSPATLSLSPGERATLSCSATSSVSYMHWFQQKPGQAPRLLIYSTSNLASGIPARFSGSGSGTDYTLTISSLEPEDFAVYYCQQRSSYPFTFGPGTKLDIK	50 pM
HCKC (antibody, human IgG1, V domains shown, human IgG1/kappa) VH: EVQLVESGGGLVQPGGSLRLSCAVSGFSLTIYGAHWVRQAPGKGLEWVSVIWAGGSTNYNSALMSRFTISKDNSKNTVYLQMNSLRAEDTAVYYCARDGSSPYYYSMEYWGQGTTVTVSS VL: EIILTQSPATLSLSPGERATLSCSATSSVSYMHWFQQKPGQAPRLLIYSTSNLASGIPARFSGSGSGTDFTLTISSLEPEDFAVYYCQQRSSYPFTFGPGTKLDIK	58 pM
HDKA (antibody, human IgG1, V domains shown, human IgG1/kappa) VH: EVQLVESGGGLVQPGGSLRLSCAASGFSLTIYGAHWVRQAPGKGLEWLSVIWAGGSTNYNSALMSRFTISKDNSKNTVYLQMNSLRAEDTAVYYCARDGSSPYYYSMEYWGQGTTVTVSS VL: EIVLTQSPATLSLSPGERATLSCSATSSVSYMHWFQQKPGQAPRLLIYSTSNLASGIPARFSGSGSGTDFTLTISSLEPEDFAVYYCQQRSSYPFTFGPGTKLDIK	67 pM
HCKE (antibody, human IgG1, V domains shown, human IgG1/kappa) VH: EVQLVESGGGLVQPGGSLRLSCAVSGFSLTIYGAHWVRQAPGKGLEWVSVIWAGGSTNYNSALMSRFTISKDNSKNTVYLQMNSLRAEDTAVYYCARDGSSPYYYSMEYWGQGTTVTVSS VL: EIVLTQSPATLSLSPGERATLSCSATSSVSYMHWFQQKPGQAPRLLIYSTSNLASGVPARFSGSGSGTDFTLTISSLEPEDFAVYYCQQRSSYPFTFGPGTKLDIK	59 pM

The next lines start with the values.

EC50	Binder
57 pM	HDKC (antibody, human IgG1, V domains shown, human IgG1/kappa) VH: EVQLVESGGGLVQPGGSLRLSCAASGFSLTIYGAHWVRQAPGKGLEWLSVIWAGGSTNYNSALMSRFTISKDNSKNTVYLQMNSLRAEDTAVYYCARDGSSPYYYSMEYWGQGTTVTVSS VL: EIILTQSPATLSLSPGERATLSCSATSSVSYMHWFQQKPGQAPRLLIYSTSNLASGIPARFSGSGSGTDFTLTISSLEPEDFAVYYCQQRSSYPFTFGPGTKLDIK
48 pM	HDKD (antibody, human IgG1, V domains shown, human IgG1/kappa) VH: EVQLVESGGGLVQPGGSLRLSCAASGFSLTIYGAHWVRQAPGKGLEWLSVIWAGGSTNYNSALMSRFTISKDNSKNTVYLQMNSLRAEDTAVYYCARDGSSPYYYSMEYWGQGTTVTVSS VL: EIVLTQSPATLSLSPGERATLSCSATSSVSYMHWFQQKPGQAPRLWIYSTSNLASGIPARFSGSGSGTDFTLTISSLEPEDFAVYYCQQRSSYPFTFGPGTKLDIK
63 pM and 57 pM	HEKB (antibody, human IgG1, V domains shown, human IgG1/kappa) VH: EVQLVESGGGLVQPGGSLRLSCAASGFSLTIYGAHWVRQAPGKGLEWVGVIWAGGSTNYNSALMSRFTISKDNSKNTVYLQMNSLRAEDTAVYYCARDGSSPYYYSMEYWGQGTTVTVSS VL: EIILTQSPATLSLSPGERATLSCSATSSVSYMHWFQQKPGQAPRLWIYSTSNLASGVPARFSGSGSGTDYTLTISSLEPEDFAVYYCQQRSSYPFTFGPGTKLDIK
55 pM	HDKB (antibody, human IgG1, V domains shown, human IgG1/kappa) VH: EVQLVESGGGLVQPGGSLRLSCAASGFSLTIYGAHWVRQAPGKGLEWLSVIWAGGSTNYNSALMSRFTISKDNSKNTVYLQMNSLRAEDTAVYYCARDGSSPYYYSMEYWGQGTTVTVSS VL: EIILTQSPATLSLSPGERATLSCSATSSVSYMHWFQQKPGQAPRLWIYSTSNLASGVPARFSGSGSGTDYTLTISSLEPEDFAVYYCQQRSSYPFTFGPGTKLDIK
57 pM	HDKF (antibody, human IgG1, V domains shown, human IgG1/kappa) VH: EVQLVESGGGLVQPGGSLRLSCAASGFSLTIYGAHWVRQAPGKGLEWLSVIWAGGSTNYNSALMSRFTISKDNSKNTVYLQMNSLRAEDTAVYYCARDGSSPYYYSMEYWGQGTTVTVSS VL: EIVLTQSPATLSLSPGERATLSCSATSSVSYMHWFQQKPGQAPRLLIYSTSNLASGIPARFSGSGSGTDYTLTISSLEPEDFAVYYCQQRSSYPFTFGPGTKLDIK
56 pM	HDKFmut (antibody, human IgG1, V domains shown, human IgG1/kappa) VH: EVQLVESGGGLVQPGGSLRLSCAASGFSLTIYGAHWVRQAPGKGLEWLSVIWAGGSTNYNSALMSRFTISKDNSKNTVYLQMNSLRAEDTAVYYCARDGSSPYYYSMEYWGQGTTVTVSS VL: EIVLTQSPATLSLSPGERATLSCSATSSVSYMHWFQQKPGQAPRLLIYSTSNLASGIPARFSGSGSGTDYTLTISSLEPEDFAVYYCQQRSSYPYTFGPGTKLDIK
113 pM	HDKG (antibody, human IgG1, V domains shown, human IgG1/kappa) VH: EVQLVESGGGLVQPGGSLRLSCAASGFSLTIYGAHWVRQAPGKGLEWLSVIWAGGSTNYNSALMSRFTISKDNSKNTVYLQMNSLRAEDTAVYYCARDGSSPYYYSMEYWGQGTTVTVSS VL: EIVLTQSPATLSLSPGERATLSCSATSSVSYMHWYQQKPGQAPRLLIYSTSNLASGIPARFSGSGSGTDFTLTISSLEPEDFAVYYCQQRSSYPFTFGPGTKLDIK
65 pM	HDKE (antibody, human IgG1, V domains shown, human IgG1/kappa) VH: EVQLVESGGGLVQPGGSLRLSCAASGFSLTIYGAHWVRQAPGKGLEWLSVIWAGGSTNYNSALMSRFTISKDNSKNTVYLQMNSLRAEDTAVYYCARDGSSPYYYSMEYWGQGTTVTVSS VL: EIVLTQSPATLSLSPGERATLSCSATSSVSYMHWFQQKPGQAPRLLIYSTSNLASGVPARFSGSGSGTDFTLTISSLEPEDFAVYYCQQRSSYPFTFGPGTKLDIK

From patent US20200054723A1 (ALLAKOS, published 2020)
